For assay [1], the target named is T1, human IL2Rβ (human, UniProt P14784 27-239).
T1 construct: also called IL2β; CD122
T1 sequence (looked up): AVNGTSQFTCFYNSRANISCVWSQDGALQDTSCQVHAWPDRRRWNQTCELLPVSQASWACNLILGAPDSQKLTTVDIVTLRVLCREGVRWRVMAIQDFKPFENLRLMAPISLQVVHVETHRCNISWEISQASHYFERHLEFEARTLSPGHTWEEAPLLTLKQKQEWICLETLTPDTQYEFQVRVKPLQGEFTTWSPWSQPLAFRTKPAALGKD
As to the kind of experiment: SPR, receptor captured on Protein A chip, E. coli-produced IL2. The procedure: The assay was run with Biacore T200 control software version 2.0. For each cycle, 1 μg/mL of human IL2Rβ or IL2Rα was captured for 60 seconds at flow rate of 10 μL/min on flow cell 2 in 1×HBST buffer on Protein A sensor chip. Two-fold serial diluted HIS tag purified engineered IL2 mutant was injected onto both reference flow cell 1 and IL2Rβ or IL2Rα captured flow cell 2 for 150 seconds at flow rate of 30 μL/min followed by washing for 300 seconds. The flow cells were then regenerated with Glycine pH 2 for 40 seconds at a flow rate of 30 μL/mins. Eight concentration points from 0 to 100 nM were assayed for each IL2Rβ agonist clone 96-well plate format. The kinetics data was analyzed with Biacore T200 evaluation software 3000. The specific binding response unit was derived from subtraction of binding to reference flow cell 1 from target flow cell 2.
On the technique in general: Surface plasmon resonance follows binding to a sensor surface in real time, without labels.

Assay [2] has as its target T2, human IL2Rα Fc fusion protein (human, UniProt P01589 22-213, limits assumed).
T2 construct: also called Recombinant Fc-tagged human IL2Rα; not shown: Fc
T2 sequence (looked up): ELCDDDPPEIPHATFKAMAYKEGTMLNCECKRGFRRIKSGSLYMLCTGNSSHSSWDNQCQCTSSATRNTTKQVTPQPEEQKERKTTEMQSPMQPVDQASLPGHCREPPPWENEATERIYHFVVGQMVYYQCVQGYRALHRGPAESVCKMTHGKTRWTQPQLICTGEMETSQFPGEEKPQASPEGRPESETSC
As to the kind of experiment: ELISA, receptor-Fc coated, anti-Flag HRP. On the procedure: (§1) Briefly, 384 well plate was immobilized with human IL2Rα and IL2Rβ Fc fusion proteins at a final concentration of 2 ug/mL in 1×PBS in total volume of 25 uL per well. The plate was incubated overnight at 4 C and blocked with 80 uL of superblock per well for 1 hour. […] Each dilution was added to IL2Rα or IL2Rβ wells in parallel in duplicates. The IL2 mutant binding was detected by adding 25 uL of anti-Flag HRP diluted at 1:5000 in 1×PBST. In between each step, the plate was washed three times with 1×PBST using a plate washer. The plate was then developed with 25 uL of TMB substrate for five minutes and stopped by adding 25 ul of 2N sulfuric acid. The plate was read at OD450 nm Biotek plate reader and the EC50 was analyzed with Prism 8.1 software to generate EC50 values (FIG. 15A for IL2Rα, and FIG. 15B for IL2Rβ, summarized in Table 9).
A general note: In an ELISA, binding on a coated surface is turned into a signal by an enzyme label.

For assay [3], the target named is T3, human IL2Rβ Fc fusion protein (human, UniProt P14784 27-239).
T3 construct: also called Recombinant Fc-tagged human IL2Rβ; not shown: Fc
T3 sequence (looked up): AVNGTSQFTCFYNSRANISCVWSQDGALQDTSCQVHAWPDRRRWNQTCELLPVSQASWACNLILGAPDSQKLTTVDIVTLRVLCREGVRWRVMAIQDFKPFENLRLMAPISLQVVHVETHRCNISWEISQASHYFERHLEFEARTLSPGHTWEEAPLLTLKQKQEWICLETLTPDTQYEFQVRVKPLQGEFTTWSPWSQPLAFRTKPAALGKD
Briefly: ELISA, receptor-Fc coated, anti-Flag HRP. The procedure:
as §1

The target in assay [4] is T1, human IL2Rβ. As to the kind of experiment: SPR, IL2Rβ captured on Protein A chip. On the procedure:
Kinetic analysis of the receptor binding activities of IL2Rβ agonist with IL2Rα reduced activity mutations have been assessed by SPR technology with Biacore T200. The assay was run with Biacore T200 control software version 2.0. For each cycle, 1 ug/mL of human IL2Rβ was captured for 60 seconds at flow rate of 10 ul/min on flow cell 2 in 1×HBSP buffer on Protein A sensor chip. 100 nM of HIS and Flag tag purified each IL2 mutant was 2 fold serial diluted and injected onto both reference flow cell 1 and IL2Rβ captured flow cell 2 for 150 seconds at flow rate of 30 ul/mins followed by wash for 300 seconds. The flow cells were then regenerated with Glycine pH2 for 60 seconds at flow rate of 30 ul/mins. The assay was set up with 8 serial diluted concentration points in 96 well format. The kinetics data was analyzed with Biacore T200 evaluation software 3.0. The specific binding response unit was derived from subtraction of binding to reference flow cell 1 from target flow cell 2.

Assay [5] has as its target T3, human IL2Rβ Fc fusion protein. As to the kind of experiment: ELISA, Fc-tagged receptor coated, anti-HisTag-HRP. On the procedure:
Recombinant Fc-tagged human IL2Rα and IL2Rβ were added in 25 uL of 1×PBS to wells of 384-well plate and incubated overnight at 4° C. to coat the plates. Plates were washed three times with 0.05% Tween20/1×PBS. Plates were blocked with 100 uL of SuperBlock for 1 hr at RT and then washed 3 times with 0.05% Tween20/1×PBS. IL2 mutants were diluted in 0.05% Tween 20/1×PBS from 1000 nM to 0 nM and added to plates for 2 hrs at room temperature. Plates were then washed 6 times with 0.05% Tween20/1×PBS. Anti-HisTag-HRP was diluted 1:5000 in 0.05% Tween20/1×PBS and added to plates for 1 hr at RT. Plates were then washed 6 times with 0.05% Tween 20/1×PBS, and TMB was added to develop blue color. Reactions were stopped with 2N […] and light absorbance at 450 nm was read on a BioTek plate reader.

B1: EP007 (ligand)
chain: APTSSSTKKTQLQLEHLLLDLQMILNGINNYKNPKLTRMLTFKFYMPKKATELKHLQCLEEELKPLEEVLNLAQSKNFHLKWGDAVSNARVLAGALKGSETTFMCEYADETATIVEFLNRWITFCQSIISTLT
notes: not shown: C-terminal Flag and 6xHis tags
Regarding B1, in the assay with human IL2Rβ [1], binding was put at a Kd of 0.37 nM, the off-rate constant (koff) is 0.000263 s⁻¹, the kon was 709000 M⁻¹ s⁻¹ and the “relative activity IL2Rβ (KD: fold) against WT IL2” value is 11700 fold.

B2: EP251 (ligand)
chain: APTSSSTKKTQLQLEHLLLDLQMILNGINNYKNPKLTRMLTFKFYMPKKATELKHLQCLEEELKPLEEVLNLAQSKNFHLTPRDAIDNINVIIQELKGSETTFMCEYADETATIVEFLNRWITFCQSIISTLT
notes: not shown: His and Flag tags
For B2, the results for the EC50 in assay [2] and in assay [3] were 16.8 nM and 2.5 nM, respectively.

B3: EP244 (ligand)
chain: APTSSSTKKTQLQLEHLLLDLQMILNGINNYKNPKLTRMLTFKFYMPKKATELKHLQCLEEELKPLEEVLNLAQSKNFHLRARDLIDNIRVIIQELKGSETTFMCEYADETATIVEFLNRWITFCQSIISTLT
notes: not shown: His and Flag tags
Take B3: the EC50 in assay [2] came out at 10.2 nM; in assay [3] it was 2830 nM.

B4: EP261 (ligand)
chain: APTSSSTKKTQLQLEHLLLDLQMILNGINNYKNPKLTRMLTFKFYMPKKATELKHLQCLEEELKPLEEVLNLAQSKNFHLTARDAIDNINVIVQELKGSETTFMCEYADETATIVEFLNRWITFCQSIISTLT
notes: not shown: His and Flag tags
With B4, the EC50 in assay [2] was 2.9 nM; in assay [3] it was 124 nM.

B5: EP257 (ligand)
chain: APTSSSTKKTQLQLEHLLLDLQMILNGINNYKNPKLTRMLTFKFYMPKKATELKHLQCLEEELKPLEEVLNLAQSKNFHLTARDLIDNIRVIILELKGSETTFMCEYADETATIVEFLNRWITFCQSIISTLT
notes: not shown: His and Flag tags
B5: a half-maximal effect in assay [2] (EC50) was put at 5.6 nM.

B6: EP250 (ligand)
chain: APTSSSTKKTQLQLEHLLLDLQMILNGINNYKNPKLTRMLTFKFYMPKKATELKHLQCLEEELKPLEEVLNLAQSKNFHLTPRDAISNIRVIIQELKGSETTFMCEYADETATIVEFLNRWITFCQSIISTLT
notes: not shown: His and Flag tags
As for B6, the values for the EC50 in assay [2] and in assay [3] were 13.2 nM and 23.4 nM, respectively.

B7: EP248 (ligand)
chain: APTSSSTKKTQLQLEHLLLDLQMILNGINNYKNPKLTRMLTFKFYMPKKATELKHLQCLEEELKPLEEVLNLAQSKNFHLRARDAIDNIRVIILELKGSETTFMCEYADETATIVEFLNRWITFCQSIISTLT
notes: not shown: His and Flag tags
B7: the half-maximal effective concentration (EC50) turned out to be 13.4 nM in assay [2] and 188 nM in assay [3].

B8: EP254 (ligand)
chain: APTSSSTKKTQLQLEHLLLDLQMILNGINNYKNPKLTRMLTFKFYMPKKATELKHLQCLEEELKPLEEVLNLAQSKNFHLTARDLISNIRVIIQELKGSETTFMCEYADETATIVEFLNRWITFCQSIISTLT
notes: not shown: His and Flag tags
As to B8, the EC50 in assay [2] came out at 4.3 nM; in assay [3], 556 nM.

B9: EP246 (ligand)
chain: APTSSSTKKTQLQLEHLLLDLQMILNGINNYKNPKLTRMLTFKFYMPKKATELKHLQCLEEELKPLEEVLNLAQSKNFHLRARDAIDNINVIIQELKGSETTFMCEYADETATIVEFLNRWITFCQSIISTLT
notes: not shown: His and Flag tags
For B9, the EC50 is 7 nM in assay [2] and 269 nM in assay [3].

B10: EP245 (ligand)
chain: APTSSSTKKTQLQLEHLLLDLQMILNGINNYKNPKLTRMLTFKFYMPKKATELKHLQCLEEELKPLEEVLNLAQSKNFHLRARDAISNIRVIIQELKGSETTFMCEYADETATIVEFLNRWITFCQSIISTLT
notes: not shown: His and Flag tags
As for B10, the figures for the EC50 in assay [2] and in assay [3] were 4.8 nM and 123 nM, respectively.

B11: EP262 (ligand)
chain: APTSSSTKKTQLQLEHLLLDLQMILNGINNYKNPKLTRMLTFKFYMPKKATELKHLQCLEEELKPLEEVLNLAQSKNFHLTARDAIDNINVIILELKGSETTFMCEYADETATIVEFLNRWITFCQSIISTLT
notes: not shown: His and Flag tags
For the molecule B11, the EC50 in assay [2] is 32.1 nM; in assay [3], 53.2 nM.

B12: EP410 (ligand)
chain: APTSSSTKKTQLQLEHLLLDLQMILNGINNYKNPKLTVMLTFKFSMPKKATELKHLQCLEEELKPLEEVLNLAQSKNFHLTARDAVDNMRVIIQELKGSETTFMCEYADETATIVEFLNRWITFCQSIISTLT
notes: not shown: His and Flag tags
On to B12, for which, in the assay with human IL2Rβ [4], the Kd worked out at 0.827 nM, the koff is 0.00594 s⁻¹ and the kon is 7.19e+06 M⁻¹ s⁻¹.

B13: EP249 (ligand)
chain: APTSSSTKKTQLQLEHLLLDLQMILNGINNYKNPKLTRMLTFKFYMPKKATELKHLQCLEEELKPLEEVLNLAQSKNFHLTPRDLIDNIRVIIQELKGSETTFMCEYADETATIVEFLNRWITFCQSIISTLT
notes: not shown: His and Flag tags
For B13, the EC50 came to 20.2 nM in assay [2] and 576 nM in assay [3].

B14: EP256 (ligand)
chain: APTSSSTKKTQLQLEHLLLDLQMILNGINNYKNPKLTRMLTFKFYMPKKATELKHLQCLEEELKPLEEVLNLAQSKNFHLTARDLIDNIRVIVQELKGSETTFMCEYADETATIVEFLNRWITFCQSIISTLT
notes: not shown: His and Flag tags
Consider B14, for which the 50% effective concentration (EC50) stood at 5.3 nM in assay [2] and 362 nM in assay [3].

B15: EP350 (ligand)
chain: APTSSSTKKTQLQLEHLLLDLQMILNGINNYKNPKLTRMLTAKFYMPKKATELKHLQCLEEELKPLEEVLNLAQSKNFHLTARDAISNINVIIQELKGSETTFMCEYADETATIVEFLNRWITFCQSIISTLT
notes: not shown: His and Flag tags
Regarding B15, the response in assay [5] was half-maximal at 39.9 nM (EC50).

B16: EP243 (ligand)
chain: APTSSSTKKTQLQLEHLLLDLQMILNGINNYKNPKLTRMLTFKFYMPKKATELKHLQCLEEELKPLEEVLNLAQSKNFHLRPRDAIDNIRVIIQELKGSETTFMCEYADETATIVEFLNRWITFCQSIISTLT
notes: not shown: His and Flag tags
As for B16, the EC50 in assay [2] is 6.7 nM; in assay [3], 217 nM.

B17: EP255 (ligand)
chain: APTSSSTKKTQLQLEHLLLDLQMILNGINNYKNPKLTRMLTFKFYMPKKATELKHLQCLEEELKPLEEVLNLAQSKNFHLTARDLIDNINVIIQELKGSETTFMCEYADETATIVEFLNRWITFCQSIISTLT
notes: not shown: His and Flag tags
With B17, the EC50 in assay [2] stood at 4.3 nM; in assay [3], 360 nM.

B18: EP347 (ligand)
chain: APTSSSTKKTQLQLEHLLLDLQMILNGINNYKNPKLTVMLTFKFSMPKKATELKHLQCLEEELKPLEEVLNLAQSKNFHLTPRDAIDNIRVIVQELKGSETTFMCEYADETATIVEFLNRWITFCQSIISTLT
notes: not shown: His and Flag tags
As to B18, the half-maximal effective concentration (EC50) in assay [5] was 77.6 nM.

As usually defined, the Kd is the equilibrium constant for the complex coming apart. High values mean a looser complex, low ones a tighter complex. One may read the koff as a measure of how fast the partners let go of each other. The low end stands for slow dissociation, the high end for fast dissociation. The term kon denotes the second-order rate constant of association. The low end stands for slower complex formation, the high end for faster complex formation. By EC50 is commonly meant the midpoint of the concentration-response curve. Read a low EC50 as greater potency.

Values taken from patent publication US20230002466A1 (ELPIS BIOPHARMACEUTICALS, published 2023).
